{
  "source": "paper PMC6599655",
  "key": {"[1]": {"test": "Western blot of concentrated culture supernatant vs lysate", "settings": "glycan lost; control: wild type"}, "[2]": {"test": "Western blot of 293T cell lysates", "settings": "glycan lost; control: wild type"}},
  "data": [
    {"protein": "Procollagen C-proteinase enhancer protein (PCOLCE): N29Q (protein) parent chain: MLPAATASLLGPLLTACALLPFAQGQTPNYTRPVFLCGGDVKGESGYVASEGFPNLYPPNKECIWTITVPEGQTVSLSFRVFDLELHPACRYDALEVFAGSGTSGQRLGRFCGTFRPAPLVAPGNQVTLRMTTDEGTGGRGFLLWYSGRATSGTEHQFCGGRLEKAQGTLTTPNWPESDYPPGISCSWHIIAPPDQVIALTFEKFDLEPDTYCRYDSVSVFNGAVSDDSRRLGKFCGDAVPGSISSEGNELLVQFVSDLSVTADGFSASYKTLPRGTAKEGQGPGPKRGTEPKVKLPPKSQPPEKTEESPSAPDAPTCPKQCRRTGTLQSNFCASSLVVTATVKSMVREPGEGLAVTVSLIGAYKTGGLDLPSPPTGASLKFYVPCKQCPPMKKGVSYLLMGQVEENRGPVLPPESFVVLHRPNQDQILTNLSKRKCPSQPVRAAASQD", "values": [
      {"measurement": "expression_or_secretion", "setting": "[1]", "value": "decreases"},
      {"measurement": "expression_or_secretion", "setting": "[2]", "value": "decreases"}
    ]}
  ]
}
